The values below come from paper PMC3675498.

Read-outs that look alike come from different tables or passages of the source.

Holding throughout (assay): EMSA
A general note: A gel shift assay detects complexes by their altered migration in electrophoresis.

Data set [1] deals with T1, H3 octamer (H3/H4/H2A/H2B), splits to hemisome (UniProt P61830;P02309;P04911;P02293 2-136;2-103;2-132;2-131).
The target in data set [2] is T2, Cse4 octamer (Cse4/H4/H2A/H2B), splits to hemisome (UniProt P36012;P02309;P04911;P02293 1-229;1-103;1-132;1-131).
In data set [3] the target is T2, Cse4 octamer (Cse4/H4/H2A/H2B), splits …. This is another data set of the same source.
Data set [4] concerns the target T1, H3 octamer (H3/H4/H2A/H2B), splits to …. The source holds these as a separate data set.
The next data set concerns the target Cse4-Δ90 octamer (UniProt P36012;P02309;P04911;P02293 91-229;2-103;2-132;2-131).

T1 sequence (P04911 2-132, chain 3 of 2): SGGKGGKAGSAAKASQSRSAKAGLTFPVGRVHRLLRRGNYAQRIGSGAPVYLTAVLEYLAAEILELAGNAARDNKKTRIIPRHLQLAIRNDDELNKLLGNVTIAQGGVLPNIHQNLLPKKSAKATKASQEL
T1 sequence (P02293 2-131, chain 4 of 2): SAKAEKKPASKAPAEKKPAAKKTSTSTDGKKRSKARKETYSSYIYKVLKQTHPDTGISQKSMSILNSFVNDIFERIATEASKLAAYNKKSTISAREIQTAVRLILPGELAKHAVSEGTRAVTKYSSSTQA
T2 sequence (P36012 whole entry, chain 1 of 2): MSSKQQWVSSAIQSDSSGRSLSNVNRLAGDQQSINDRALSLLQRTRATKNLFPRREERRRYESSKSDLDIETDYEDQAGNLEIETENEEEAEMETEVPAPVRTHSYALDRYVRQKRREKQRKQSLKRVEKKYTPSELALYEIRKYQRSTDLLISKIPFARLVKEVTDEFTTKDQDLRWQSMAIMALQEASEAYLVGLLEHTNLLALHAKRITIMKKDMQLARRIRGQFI
T2 sequence (P02293 whole entry, chain 4 of 2): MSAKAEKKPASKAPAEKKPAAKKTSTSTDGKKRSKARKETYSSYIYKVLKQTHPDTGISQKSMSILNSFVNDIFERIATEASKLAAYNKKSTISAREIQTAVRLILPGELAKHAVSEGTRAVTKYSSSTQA
Cse4-Δ90 octamer, sequence (P04911 2-132, stated change not applied, chain 3 of 2): as the sequence (P04911 2-132, chain 3 of 2) above
Cse4-Δ90 octamer, sequence (P02293 2-131, stated change not applied, chain 4 of 2): as the sequence (P02293 2-131, chain 4 of 2) above

B1: Cen4 CDEII 78 bp (dsDNA)
DNA 1: CTTATAATCAACTTTTTTAAAAATTTAAAATACTTTTTTATTTTTTATTTTTAAACATAAATGAAATAATTTATTTAT
DNA 2: ATAAATAAATTATTTCATTTATGTTTAAAAATAAAAAATAAAAAAGTATTTTAAATTTTTAAAAAAGTTGATTATAAG
As to B1, the binding result in data set [1] and in data set [2] was “binds” throughout.

B2: α62 (dsDNA)
DNA 1: CCTGCAGATACTACCAAAAGTGTATTTGGAAACTGCTCCATCAAAAGGCATGTTCAGCTGGA
DNA 2: TCCAGCTGAACATGCCTTTTGATGGAGCAGTTTCCAAATACACTTTTGGTAGTATCTGCAGG
As to B2, the binding result (in data set [3]; in data set [4]; with Cse4-Δ90 octamer) was “binds” in each case.
